For experiment [1], the target named is T1, p110β (Mus musculus, UniProt Q8BTI9).
T1 construct: Mouse His6-p110β(1-1064)/p85β-icSH2(423-722) complex; made in house; host or cells: Sf9 insect cells (baculovirus co-infection)
The experiment can be described thus: Transcreener ADP formation (fluorescence polarization), diC8-PIP2/POPS liposomes, mouse p110β complexes. To be noted: 10 μM PDGFR pY2; Figure 3A. In kind it is biochemical. Here is the method: (§1) Figure 1 Inhibition of p110β by p85-Type Regulatory Subunits and Activation of the Complexes by RTK Phosphopeptide (A) Domain organization of p110β and the regulatory subunits p85α, p85β, and p55γ. The color scheme for the domains is used for all figures, unless otherwise stated. […] The inhibition is released upon addition of the 10 μM PDGFR pY2. […] The y axis is expressed as a change in fluorescence polarization (ΔmP), which is obtained by subtracting the observed polarization for the construct at a given enzyme concentration from the maximum fluorescence polarization for that construct. The plateau in these assays arises due to the competitive nature of the ADP detection system, based on displacement of ADP-Alexa 633 tracer from the ADP^2-antibody by ADP generated during the PI3K assay (see Supplemental Experimental Procedures). All measurements were done in triplicates, and the error bars indicate the standard error of the mean (SEM). (C) Kinase activity of p110β/p85β complexes with monomeric substrate (75 μM diC8-PIP2) in the presence and absence of pY2; y axis as in (B). (D) Basal- and pY2-stimulated activities of 35 nM PI3K complexes in the absence of lipids (ATP hydrolysis). Activities are given as percent of ATP converted to ADP using the Transcreener assay. Bars indicate SEM. TEXT PRINTED IN THE PICTURE: (B) p110β/nic: EC50 (nM): 15 | (B) p110β/nic+pY2: EC50 (nM): 0.14 | (B) p110β/ic: EC50 (nM): 1 | (B) p110β/ic+pY2: EC50 (nM): 0.21 | (B) p110β/ni: EC50 (nM): 0.84 | (B) p110β/ni+pY2: EC50 (nM): 0.24 | (B) p110β/i: EC50 (nM): 0.12 | (B) p110β/i+pY2: EC50 (nM): 0.14 | (B) ΔABD-p110β: EC50 (nM): 0.06 | (B) ΔABD-p110β+pY2: EC50 (nM): 0.05 | (C) p110β/nic: EC50 (nM): 24 | (C) p110β/nic+pY2: EC50 (nM): 3 | (C) p110β/ic: EC50 (nM): 5 | (C) p110β/ic+pY2: EC50 (nM): 2 | (C) p110β/ni: EC50 (nM): 4 | (C) p110β/ni+pY2: EC50 (nM): 2 […]
(§2) Figure 3 Mutation Y677A in p85β-cSH2 Releases Inhibitory Effect on p110β (A) Kinase activity (ADP formation) of p110β in a complex with p85β-icSH2-Y677A (Y677A-ic) compared to the wild-type complex (ic) in the absence and presence of 10 μM PDGFR pY2 (ADP formation on the y axis expressed as in Figure 1B). (B) Comparison of p110β activities of 1 nM complexes with wild-type or Y677 mutant nicSH2 or icSH2 (activity shown as in Figure 1D). TEXT PRINTED IN THE PICTURE: (A) p110β/ic: EC50 (nM): 1 | (A) p110β/ic+pY2: EC50 (nM): 0.15 | (A) p110β/ic-Y677A: EC50 (nM): 0.11 | (A) p110β/ic-Y677A+pY2: EC50 (nM): 0.08 […]
(§3) The lipid kinase activity was determined using the Transcreener ADP2 FP Assay (BellBrook Labs, Madison, WI) according to manufacturer‟s specifications. This non-radioactive assay measures activity by quantitating the amount of ADP formed. The ADP formed by PI3K competes with fluorescent ADP tracer for binding to an anti-ADP antibody, thereby decreasing fluorescence polarization. Because of the competitive nature of this assay, the change in fluorescence polarization signal is not a linear function of enzyme activity, and a convenient measure of enzyme activity is the EC50, or the concentration of enzyme necessary to give half-maximal inhibition of labeled ADP binding to the antibody, for a given concentration of substrate and a fixed time of reaction at initial rate. While activity of two different enzyme constructs can be compared at a fixed concentration of protein and a fixed concentration of substrate, the assay is most reliable when about 2%-10% of the ATP is […]
(§4) Consequently, the EC50 provides a convenient way to compare the activities of various constructs. Briefly, reactions were performed in 10 μl volume in 384-well black plates (Corning 3676) and they contained final 100 μM ATP, 75 μM lipids and a series of protein concentration varying from 0.001 nM to 2.5 μM. Serial dilutions of protein heterodimers were prepared in buffer F (50 mM Hepes pH 7.5, 100 mM NaCl, 0.03% CHAPS, 4 mM DTT) in 5 μl […]
volume. […]
A general note: Fluorescence polarisation rises when a labelled molecule tumbles more slowly, as on binding a larger partner.

In experiment [2] the test system is p110β. Described as above. The format is biochemical. Particulars: for EC50: Figure 3A, Y677A vs wild-type, diC8-PIP2/POPS, 100 μM ATP, 1 h, room temperature. Here is the method:
as §1, §2, §3, §4
volume. […]

Where two headings read alike, the source gives them in different places.

T1 sequence (Q8BTI9 whole entry, one chain of several): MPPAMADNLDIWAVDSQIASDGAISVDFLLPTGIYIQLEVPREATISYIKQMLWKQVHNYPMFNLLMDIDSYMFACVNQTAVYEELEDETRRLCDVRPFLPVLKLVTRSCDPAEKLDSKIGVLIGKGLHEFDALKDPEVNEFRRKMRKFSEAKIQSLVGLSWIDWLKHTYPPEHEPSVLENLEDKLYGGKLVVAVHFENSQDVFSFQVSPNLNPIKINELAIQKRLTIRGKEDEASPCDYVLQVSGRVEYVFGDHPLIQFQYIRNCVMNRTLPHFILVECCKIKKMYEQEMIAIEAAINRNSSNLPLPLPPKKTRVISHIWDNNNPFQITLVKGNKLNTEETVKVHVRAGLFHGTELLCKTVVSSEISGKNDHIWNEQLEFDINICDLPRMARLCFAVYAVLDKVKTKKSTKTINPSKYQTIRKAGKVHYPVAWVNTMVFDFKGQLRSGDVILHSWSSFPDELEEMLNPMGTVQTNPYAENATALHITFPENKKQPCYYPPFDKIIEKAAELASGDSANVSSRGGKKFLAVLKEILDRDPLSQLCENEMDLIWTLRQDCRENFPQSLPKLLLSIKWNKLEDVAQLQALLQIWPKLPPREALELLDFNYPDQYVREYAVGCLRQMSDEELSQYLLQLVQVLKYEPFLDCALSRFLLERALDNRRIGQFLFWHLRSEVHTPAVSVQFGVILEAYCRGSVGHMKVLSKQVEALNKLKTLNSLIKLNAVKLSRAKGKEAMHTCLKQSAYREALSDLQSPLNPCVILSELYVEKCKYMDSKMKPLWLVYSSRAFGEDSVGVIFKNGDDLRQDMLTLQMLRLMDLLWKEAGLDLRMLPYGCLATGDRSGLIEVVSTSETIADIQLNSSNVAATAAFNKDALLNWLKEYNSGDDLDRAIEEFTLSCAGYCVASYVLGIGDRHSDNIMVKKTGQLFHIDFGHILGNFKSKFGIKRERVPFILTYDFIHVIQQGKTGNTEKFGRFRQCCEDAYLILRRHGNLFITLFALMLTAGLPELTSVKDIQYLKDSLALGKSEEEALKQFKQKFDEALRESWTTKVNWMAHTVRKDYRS

B1: p110β/ic-Y677A: p110β in a complex with p85β-icSH2-Y677A (protein)
chain: QQDQVVKEDSIEAVGAQLKVYHQQYQDKSREYDQLYEEYTRTSQELQMKRTAIEAFNETIKIFEEQGQTQEKCSKEYLERFRREGNEKEMQRILLNSERLKSRIAEIHESRTKLEQDLRAQASDNREIDKRMNSLKPDLMQLRKIRDQYLVWLTQKGARQRKINEWLGIKNETEDQYSLMEDEDALPHHEERTWYVGKINRTQAEEMLSGKRDGTFLIRESSQRGCYACSVVVDGDTKHCVIYRTATGFGFAEPANLYGSLKELVLHYQHASLVQHNDALTVTLAHPVRAPGPGPPSAAR
As for B1, the “activation by pY2” value with p110β [1] was “not activated by pY2”. In addition, the EC50 in the experiment on p110β [2] (absence of pY2, read-out: EC50 (enzyme concentration), kinase activity, basal) worked out at 0.11 nM; with p110β [2] (with 10 μM PDGFR pY2, read-out: EC50 (enzyme concentration), kinase activity, + pY2), 0.08 nM. The “basal activity versus wild-type complex” value in the experiment on p110β [2] (absence of pY2, ADP formation, Figures 3A, 3B) is listed as “more active than the wild-type p110β/p85β-icSH2”.

Source of the values: PMC3670040, “Structure of Lipid Kinase p110β/p85β Elucidates an Unusual SH2-Domain-Mediated Inhibitory Mechanism” (Molecular Cell, 2011).
